55 variants from the Human Domainome abundance scans (Beltran et al. 2025) can be followed below.

Sequences and labels used below:
B1: Pyruvate dehydrogenase protein X component, mitochondrial, residues 181 to 227; numbered along this chain, O00330 (parent)
chain: RFRLSPAARNILEKHSLDASQGTATGPRGIFTKEDALKLVQLKQTGK

± gives the uncertainty stated by the source.

Variants of B1 are the subject of the data set. The data set can be described thus: abundance fitness (aPCA) (normalised: wild type 0, dead -1); higher = more abundant; growth selection in yeast, the domain comes from the species named. The following applies: Homo sapiens.
For RFRLSPAARNILEKHSLDASQGTATGPRGIFWKEDALKLVQLKQTGK [T32W], the abundance fitness was -0.716 ± 0.071.
For the variant RFRLSPAARNILEKHSLDASQGTATGPRGIFLKEDALKLVQLKQTGK [T32L], the abundance fitness is -0.553 ± 0.097.
Then RFRLSPAARNILEKHSLDASQGTATGPRGIFPKEDALKLVQLKQTGK [T32P], with -0.492 ± 0.13; and RFRLSPAARNILEKHSLDASQGTATGPRGIFHKEDALKLVQLKQTGK [T32H], with -0.389 ± 0.045; and RFRLSPAARNILEKHSLDASQGTATGPRGIFRKEDALKLVQLKQTGK [T32R], with -0.698 ± 0.094.
Turning to RFRLSPAARNILEKHSLDASQGTATGPRGIFIKEDALKLVQLKQTGK [T32I], the abundance fitness was -0.965 ± 0.21.
Consider RFRLSPAARNILEKHSLDASQGTATGPRGIFMKEDALKLVQLKQTGK [T32M], for which the abundance fitness was -0.947 ± 0.12.
The result for RFRLSPAARNILEKHSLDASQGTATGPRGIFKKEDALKLVQLKQTGK [T32K] reads -0.517 ± 0.15; that for RFRLSPAARNILEKHSLDASQGTATGPRGIFQKEDALKLVQLKQTGK [T32Q], -0.376 ± 0.13; that for RFRLSPAARNILEKHSLDASQGTATGPRGIFYKEDALKLVQLKQTGK [T32Y], -1.12 ± 0.2.
The result for RFRLSPAARNILEKHSLDASQGTATGPRGIFNKEDALKLVQLKQTGK [T32N] reads -0.733 ± 0.18; that for RFRLSPAARNILEKHSLDASQGTATGPRGIFAKEDALKLVQLKQTGK [T32A], -0.462 ± 0.087; that for RFRLSPAARNILEKHSLDASQGTATGPRGIFGKEDALKLVQLKQTGK [T32G], -0.482 ± 0.052.
For the variant RFRLSPAARNILEKHSLDASQGTATGPRGIFVKEDALKLVQLKQTGK [T32V], the abundance fitness was -0.637 ± 0.053.
Then RFRLSPAARNILEKHSLDASQGTATGPRGIFEKEDALKLVQLKQTGK [T32E], with -0.447 ± 0.057; and RFRLSPAARNILEKHSLDASQGTATGPRGIFDKEDALKLVQLKQTGK [T32D], with -0.612 ± 0.17.
The result for RFRLSPAARNILEKHSLDASQGTATGPRGIFCKEDALKLVQLKQTGK [T32C] reads -0.519 ± 0.12.
Then RFRLSPAARNILEKHSLDASQGTATGPRGWFTKEDALKLVQLKQTGK [I30W], with -0.229 ± 0.1.
With RFRLSPAARNILEKHSLDASQGTATGPRGTFTKEDALKLVQLKQTGK [I30T], the abundance fitness came out at 0.068 ± 0.083.
For RFRLSPAARNILEKHSLDASQGTATGPRGGFTKEDALKLVQLKQTGK [I30G], the abundance fitness is -0.271 ± 0.047.
Then RFRLSPAARNILEKHSLDASQGTATGPRGYFTKEDALKLVQLKQTGK [I30Y], with -0.292 ± 0.12.
Then RFRLSPAARNILEKHSLDASQGTATGPRGHFTKEDALKLVQLKQTGK [I30H], with -0.359 ± 0.15.
The result for RFRLSPAARNILEKHSLDASQGTATGPRGSFTKEDALKLVQLKQTGK [I30S] reads -0.145 ± 0.065; that for RFRLSPAARNILEKHSLDASQGTATGPRGQFTKEDALKLVQLKQTGK [I30Q], -0.178 ± 0.072.
RFRLSPAARNILEKHSLDASQGTATGPRGLFTKEDALKLVQLKQTGK [I30L]: the abundance fitness turned out to be 0.116 ± 0.04.
The result for RFRLSPAARNILEKHSLDASQGTATGPRGVFTKEDALKLVQLKQTGK [I30V] reads -0.263 ± 0.078; that for RFRLSPAARNILEKHSLDASQGTATGPRGDFTKEDALKLVQLKQTGK [I30D], -0.087 ± 0.066.
Take RFRLSPAARNILEKHSLDASQGTATGPRGEFTKEDALKLVQLKQTGK [I30E]: the abundance fitness came out at 0.092 ± 0.083.
The result for RFRLSPAARNILEKHSLDASQGTATGPRGFFTKEDALKLVQLKQTGK [I30F] reads -0.152 ± 0.05.
Then RFRLSPAARNILEKHSLDASQGTATGPRGNFTKEDALKLVQLKQTGK [I30N], with -0.268 ± 0.061; and RFRLSPAARNILEKHSLDASQGTATGPRGPFTKEDALKLVQLKQTGK [I30P], with -0.363 ± 0.08.
Then RFRLSPAARNILEKHSLDASQGTATGPRGMFTKEDALKLVQLKQTGK [I30M], with 0.137 ± 0.099; and RFRLSPAARNILEKHSLDASQGTATGPRGAFTKEDALKLVQLKQTGK [I30A], with -0.105 ± 0.054; and RFRLSPAARNILEKHSLDASQGTATGPRGCFTKEDALKLVQLKQTGK [I30C], with -0.234 ± 0.075.
Turning to RFRLSPAARNILEKHSLDASQGTATGPRGRFTKEDALKLVQLKQTGK [I30R], the abundance fitness was -0.413 ± 0.067.
Then RFRLSPAARNILEKHSLDASQGTATGLRGIFTKEDALKLVQLKQTGK [P27L], with -0.599 ± 0.069; and RFRLSPAARNILEKHSLDASQGTATGRRGIFTKEDALKLVQLKQTGK [P27R], with -0.363 ± 0.046; and RFRLSPAARNILEKHSLDASQGTATGWRGIFTKEDALKLVQLKQTGK [P27W], with -0.682 ± 0.079.
Take RFRLSPAARNILEKHSLDASQGTATGKRGIFTKEDALKLVQLKQTGK [P27K]: the abundance fitness is -0.146 ± 0.063.
The result for RFRLSPAARNILEKHSLDASQGTATGYRGIFTKEDALKLVQLKQTGK [P27Y] reads -0.689 ± 0.13; that for RFRLSPAARNILEKHSLDASQGTATGSRGIFTKEDALKLVQLKQTGK [P27S], -0.213 ± 0.043.
Then RFRLSPAARNILEKHSLDASQGTATGVRGIFTKEDALKLVQLKQTGK [P27V], with -0.515 ± 0.058.
For RFRLSPAARNILEKHSLDASQGTATGTRGIFTKEDALKLVQLKQTGK [P27T], the abundance fitness was -0.167 ± 0.069.
Then RFRLSPAARNILEKHSLDASQGTATGNRGIFTKEDALKLVQLKQTGK [P27N], with -0.426 ± 0.059.
The result for RFRLSPAARNILEKHSLDASQGTATGQRGIFTKEDALKLVQLKQTGK [P27Q] reads -0.221 ± 0.056; that for RFRLSPAARNILEKHSLDASQGTATGPRGIFTGEDALKLVQLKQTGK [K33G], -0.331 ± 0.05; that for RFRLSPAARNILEKHSLDASQGTATGPRGIFTAEDALKLVQLKQTGK [K33A], -0.113 ± 0.057.
Then RFRLSPAARNILEKHSLDASQGTATGPRGIFTNEDALKLVQLKQTGK [K33N], with -0.462 ± 0.18; and RFRLSPAARNILEKHSLDASQGTATGPRGIFTQEDALKLVQLKQTGK [K33Q], with 0.036 ± 0.098; and RFRLSPAARNILEKHSLDASQGTATGPRGIFTDEDALKLVQLKQTGK [K33D], with -0.279 ± 0.12.
Turning to RFRLSPAARNILEKHSLDASQGTATGPRGIFTMEDALKLVQLKQTGK [K33M], the abundance fitness is -0.325 ± 0.067.
The result for RFRLSPAARNILEKHSLDASQGTATGPRGIFTPEDALKLVQLKQTGK [K33P] reads -0.607 ± 0.15; that for RFRLSPAARNILEKHSLDASQGTATGPRGIFTCEDALKLVQLKQTGK [K33C], -0.417 ± 0.059; that for RFRLSPAARNILEKHSLDASQGTATGPRGIFTHEDALKLVQLKQTGK [K33H], -0.039 ± 0.15.
Then RFRLSPAARNILEKHSLDASQGTATGPRGIFTEEDALKLVQLKQTGK [K33E], with 0.079 ± 0.044.
